Measurements taken from article PMC9265643.
Where “and” joins values, the source holds several entries; their conditions need not be identical. Identical values can stand only once. Values belong to the substance of their own block, whether it stands above or below them.

Experiments:
[1] = target: non-myristoylated Gtα/Giα chimera (European robin cone Gtα with residues 220-298 replaced by the corresponding region of bovine Giα1), His6-SUMO tag removed (European robin | bovine); assay: SPR; Biacore 3000; Gtα/Giα chimera (myristoylated or non-myristoylated) amine-coupled on CM5 chip, ErCry variant injected; 10 mM HEPES/NaOH pH 7.4, 150 mM NaCl, 10 mM MgCl2, 0.005% Tween-20, 3.4 mM EDTA; control surface Ulp1 (activation/deactivation cycle for ErCry1a); global fit to a two-state-reaction model, apparent KD = kd1/ka1
[2] = target: myristoylated Gtα/Giα chimera (European robin cone Gtα with residues 220-298 replaced by the corresponding region of bovine Giα1) (European robin | bovine); assay: as above
[3] = target: non-myristoylated Gtα/Giα chimera (European robin cone Gtα with residues 220-298 replaced by the corresponding region of bovine Giα1), His6-SUMO tag removed (European robin | bovine); assay: as above; remark: listed apart in the source
[4] = target: myristoylated Gtα/Giα chimera (European robin cone Gtα with residues 220-298 replaced by the corresponding region of bovine Giα1) (European robin | bovine); assay: SPR; Biacore 3000; Gtα/Giα chimera (myristoylated or non-myristoylated) amine-coupled on CM5 chip, 500 nM ErCry4a-497 injected; 10 mM HEPES/NaOH pH 7.4, 150 mM NaCl, 10 mM MgCl2, 0.005% Tween-20, 3.4 mM EDTA; fit to a Langmuir binding model, apparent KD
[5] = target: non-myristoylated Gtα/Giα chimera (European robin cone Gtα with residues 220-298 replaced by the corresponding region of bovine Giα1), His6-SUMO tag removed (European robin | bovine); assay: as above
[6] = target: non-myristoylated Gtα/Giα chimera (European robin cone Gtα with residues 220-298 replaced by the corresponding region of bovine Giα1), His6-SUMO tag removed (European robin | bovine); assay: as above; remark: listed apart in the source
[7] = target: ErGtα-mRuby3 (wildtype European robin cone G protein α-subunit with mRuby3 fused to its C-terminus) (European robin); assay: FRET or BRET; acceptor photobleaching FRET in transiently co-transfected QNR/K2 quail neuroretina cells, fixed 48 h after transfection; donor mClover3, acceptor mRuby3; FRET efficiency in percent
[8] = target: rhodopsin (dark-adapted) (Bos taurus) (UniProt P02699); assay: SPR; details: cited from earlier work
UniProt P02699, sequence (P02699 whole entry): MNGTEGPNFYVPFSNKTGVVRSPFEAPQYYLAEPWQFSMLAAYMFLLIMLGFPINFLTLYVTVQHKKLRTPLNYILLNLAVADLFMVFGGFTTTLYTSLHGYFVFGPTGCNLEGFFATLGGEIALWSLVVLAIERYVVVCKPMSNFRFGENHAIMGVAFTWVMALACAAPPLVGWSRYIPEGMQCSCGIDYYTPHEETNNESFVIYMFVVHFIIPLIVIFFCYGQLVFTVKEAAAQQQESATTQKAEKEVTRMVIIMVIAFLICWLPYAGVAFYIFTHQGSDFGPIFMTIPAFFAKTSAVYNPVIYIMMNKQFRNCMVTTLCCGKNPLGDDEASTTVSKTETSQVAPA

Substance: European robin cryptochrome 4a (ErCry4a), purified recombinant, as used in SPR (natural protein)
Kd [1]: 35 nM
Kd [2]: 200 nM and 290 nM
ka1 (two-state-reaction model, step A + B to AB) [2]: 3320 M⁻¹ s⁻¹
kd1 (two-state-reaction model, step AB to A + B) [2]: 0.000674 s⁻¹
Kd [3]: 32 nM
ka1 (two-state-reaction model, step A + B to AB) [3]: 343000 M⁻¹ s⁻¹
kd1 (two-state-reaction model, step AB to A + B) [3]: 0.011 s⁻¹

Substance: mClover3-ErCry4, truncated after aa 497 (domain or fragment)
FRET efficiency [7]: 49.5%

Substance: transducin (from UniProt P04695)
Kd [8]: 360 nM

Substance: mClover3-ErCry4 (ErCry4a with mClover3 fused to its N-terminus) (natural protein)
FRET efficiency [7]: 49.7%

Next, values leading:

Kd [4]: 200 nM
koff [4]: 0.000915 s⁻¹
kon [4]: 5350 M⁻¹ s⁻¹
Kd [5]: 340 nM
koff [5]: 0.00305 s⁻¹
kon [5]: 6510 M⁻¹ s⁻¹
Kd [6]: 360 nM
Substance: C-terminally truncated European robin cryptochrome 4a (ErCry4a-497) (domain or fragment)

Kd [2]: 400 nM
ka1 (two-state-reaction model, forward reaction rate) [2]: 130000 M⁻¹ s⁻¹
kd1 (two-state-reaction model, backward reaction rate) [2]: 0.0527 s⁻¹
Substance: European robin cryptochrome 1a (ErCry1a), apo form without bound FAD (natural protein)

Kd [2]: 1530 nM
ka1 (two-state-reaction model, forward reaction rate) [2]: 21700 M⁻¹ s⁻¹
kd1 (two-state-reaction model, backward reaction rate) [2]: 0.0332 s⁻¹
Substance: European robin cryptochrome 1b (ErCry1b), apo form without bound FAD (natural protein)
